Laboratory results as given in US20220402995A1 (TOSOH, published 2022).

Columns and labels:
[1] = target: T1, AAV2-EGFP (AAV vector of serotype 2 carrying an EGFP gene) (AAV2, UniProt P03135 1-735; P03135 1-598; P03135 1-533); test: column of AVR5eHC immobilised on gel; cell extract with AAV2-EGFP applied, elution at pH 2.5
T1 construct: Genome-containing AAV2 particle; amounts counted as vector genomes (VG) by qPCR

[2] = target: T2, VLP2 (virus-like particles of AAV2) (AAV2, UniProt P03135 1-735; P03135 1-598; P03135 1-533); test: ELISA on VLP2; binding after 43°C 15 min / untreated
T2 construct: Empty AAV2 capsid; background says about 60 protein molecules, VP1:VP2:VP3 = 1:1:10; Immobilised on the ELISA plate
T2 sequence (P03135 whole entry, chain 1 of 3): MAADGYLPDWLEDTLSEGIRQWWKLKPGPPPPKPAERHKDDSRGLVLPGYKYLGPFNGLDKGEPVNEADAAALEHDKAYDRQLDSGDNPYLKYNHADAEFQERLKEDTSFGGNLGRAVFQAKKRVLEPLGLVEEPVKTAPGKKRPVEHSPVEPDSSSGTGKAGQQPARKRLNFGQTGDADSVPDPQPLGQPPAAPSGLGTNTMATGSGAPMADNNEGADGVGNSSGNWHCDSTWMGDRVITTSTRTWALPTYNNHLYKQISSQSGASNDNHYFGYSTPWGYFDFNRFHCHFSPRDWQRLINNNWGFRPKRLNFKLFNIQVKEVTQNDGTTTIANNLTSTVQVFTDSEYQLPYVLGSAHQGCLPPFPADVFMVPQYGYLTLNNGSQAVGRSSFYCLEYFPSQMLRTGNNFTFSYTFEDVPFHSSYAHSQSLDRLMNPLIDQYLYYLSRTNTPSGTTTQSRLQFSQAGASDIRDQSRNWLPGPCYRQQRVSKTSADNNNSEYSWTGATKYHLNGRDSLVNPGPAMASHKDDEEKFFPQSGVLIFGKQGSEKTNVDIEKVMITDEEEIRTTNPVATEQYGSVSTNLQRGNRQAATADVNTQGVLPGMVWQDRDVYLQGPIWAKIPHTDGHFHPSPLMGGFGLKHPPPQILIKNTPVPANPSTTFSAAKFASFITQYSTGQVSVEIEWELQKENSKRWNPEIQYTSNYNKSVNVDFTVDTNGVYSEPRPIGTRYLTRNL
T2 sequence (P03135 139-735, tags left off, chain 2 of 3): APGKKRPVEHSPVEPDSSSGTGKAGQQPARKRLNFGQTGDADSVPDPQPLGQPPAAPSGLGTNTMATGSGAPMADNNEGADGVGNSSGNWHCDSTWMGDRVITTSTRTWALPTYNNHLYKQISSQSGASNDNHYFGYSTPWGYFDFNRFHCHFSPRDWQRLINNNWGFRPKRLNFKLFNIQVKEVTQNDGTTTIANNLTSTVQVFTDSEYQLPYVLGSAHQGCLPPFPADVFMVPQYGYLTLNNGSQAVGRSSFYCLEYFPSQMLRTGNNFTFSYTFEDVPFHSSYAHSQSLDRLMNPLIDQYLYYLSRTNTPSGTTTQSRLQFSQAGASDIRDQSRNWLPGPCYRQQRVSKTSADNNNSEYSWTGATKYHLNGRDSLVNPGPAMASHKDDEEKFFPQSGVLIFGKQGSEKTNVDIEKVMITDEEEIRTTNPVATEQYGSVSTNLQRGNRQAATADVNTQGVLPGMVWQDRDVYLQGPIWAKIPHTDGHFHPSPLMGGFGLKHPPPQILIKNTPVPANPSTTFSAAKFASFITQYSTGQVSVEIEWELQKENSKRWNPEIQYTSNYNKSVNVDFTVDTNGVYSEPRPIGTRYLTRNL
T2 sequence (P03135 203-735, chain 3 of 3): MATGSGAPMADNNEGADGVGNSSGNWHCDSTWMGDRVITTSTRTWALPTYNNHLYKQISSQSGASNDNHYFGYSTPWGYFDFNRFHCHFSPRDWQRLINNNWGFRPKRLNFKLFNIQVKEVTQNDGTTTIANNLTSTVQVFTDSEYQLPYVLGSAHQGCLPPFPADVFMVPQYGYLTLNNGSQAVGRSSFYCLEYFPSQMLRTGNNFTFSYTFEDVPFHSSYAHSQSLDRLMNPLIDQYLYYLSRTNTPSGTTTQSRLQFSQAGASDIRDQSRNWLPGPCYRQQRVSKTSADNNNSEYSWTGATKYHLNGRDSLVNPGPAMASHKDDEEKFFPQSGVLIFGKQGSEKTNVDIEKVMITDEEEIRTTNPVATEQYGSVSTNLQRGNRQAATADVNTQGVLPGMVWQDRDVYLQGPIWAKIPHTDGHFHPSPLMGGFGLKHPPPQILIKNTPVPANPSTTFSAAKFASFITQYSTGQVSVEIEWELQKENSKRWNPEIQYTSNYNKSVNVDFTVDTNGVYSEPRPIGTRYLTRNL

[3] = target: T2, VLP2 (virus-like particles of AAV2); test: ELISA on VLP2; A450 after pH 2.5 30°C 2 h / untreated
[4] = target: T2, VLP2 (virus-like particles of AAV2); test: ELISA on VLP2; A450 after 66.1°C 15 min / untreated
[5] = target: T2, VLP2 (virus-like particles of AAV2); test: ELISA on VLP2; A450 after pH 2.5 30°C 24 h / untreated
[6] = target: T1, AAV2-EGFP (AAV vector of serotype 2 …); test: mini column of immobilised protein loaded to breakthrough; AAV2-EGFP recovered by elution at pH 3.0, qPCR
[7] = target: T2, VLP2 (virus-like particles of AAV2); test: ELISA on VLP2; A450 after 50.3°C 15 min / untreated

T1 sequence (P03135 whole entry, chain 1 of 3, the tested form may be a part): as the sequence (P03135 whole entry, chain 1 of 3) above
T1 sequence (P03135 139-735, tags left off, chain 2 of 3): as the sequence (P03135 139-735, tags left off, chain 2 of 3) above
T1 sequence (P03135 203-735, chain 3 of 3): as the sequence (P03135 203-735, chain 3 of 3) above

Row | Binder | binding result [1] | Residual activity [%] [2] [%] | Residual activity [%] [3] [%] | Residual activity [%] [4] [%] | Residual activity [%] [5] [%] | amount of AAV2-EGFP bound per 1 mL of protein-immobilized gel [6] | Residual activity [%] [7] [%]
1 | AVR5eHC (AVR5e with a cysteine tag for immobilization at the C-terminus) (receptor, also called AVR5e-immobilized gel; AVR5e column) MGSAGESVQITLPKNEVQLNAYVLQEPPKGETCTYDWQLITHPRDYSGEMEGKHSQILKLSKLTPGLYEFKVIVEGQNAHSEGYVNVTVEPEPRKNRPPIAIVSPQFQEISLPTTSTVIDGSQSTDDDKIVQYHWEELKGPLREEKISEDTAILKLSKLVPGNYTFRLTVVDSDGATDSTTANLTVNKAVDHHHHHHCRNDTCG | binds | – | – | – | – | – | –
2 | wild-type AAV-binding protein (extracellular domains 1 and 2, PKD1 and PKD2, of KIAA0319L/AAVR, positions 312-500 of SEQ ID NO: 1, with His tag) (receptor, Expressed in E. coli; tested as extract, culture supernatant or purified protein; also called wild-type AVR; product of pET-AAVRD2) MGSAGESVQITLPKNEVQLNAYVLQEPPKGETYTYDWQLITHPRDYSGEMEGKHSQILKLSKLTPGLYEFKVIVEGQNAHGEGYVNVTVKPEPRKNRPPIAIVSPQFQEISLPTTSTVIDGSQSTDDDKIVQYHWEELKGPLREEKISEDTAILKLSKLVPGNYTFSLTVVDSDGATNSTTANLTVNKAVDHHHHHH | – | 43.4 | 7.9 | 9.6 | 5.1 | 8.6e+09 VG/mL (gel) | 16.1
